Literature values, collected in publication PMC7669891.

Tests used:
p53 CTD (Homo sapiens) [1] = molecular target: p53 CTD (Homo sapiens) (UniProt P04637); assay: FP
p53 CTD (Homo sapiens) [2] = molecular target: p53 CTD (Homo sapiens) (UniProt P04637); assay: FP; remark: listed apart in the source
p53 CTD (Homo sapiens) [3] = molecular target: p53 CTD (Homo sapiens) (UniProt P04637); assay: FP; remark: listed apart in the source
p53 CTD (Homo sapiens) [4] = molecular target: p53 CTD (Homo sapiens) (UniProt P04637); assay: FP; remark: listed apart in the source
p53 CTD (Homo sapiens) [5] = molecular target: p53 CTD (Homo sapiens) (UniProt P04637); assay: FP; remark: listed apart in the source
p53 CTD (Homo sapiens) [6] = molecular target: p53 CTD (Homo sapiens) (UniProt P04637); assay: FP; remark: listed apart in the source
p53 CTD (Homo sapiens) [7] = molecular target: p53 CTD (Homo sapiens) (UniProt P04637); assay: FP; remark: listed apart in the source
p53 CTD (Homo sapiens) [8] = molecular target: p53 CTD (Homo sapiens) (UniProt P04637); assay: FP; remark: listed apart in the source
p53 CTD (Homo sapiens) [9] = molecular target: p53 CTD (Homo sapiens) (UniProt P04637); assay: FP; remark: listed apart in the source
p53 CTD (Homo sapiens) [10] = molecular target: p53 CTD (Homo sapiens) (UniProt P04637); assay: FP; remark: listed apart in the source
p53 CTD (Homo sapiens) [11] = molecular target: p53 CTD (Homo sapiens) (UniProt P04637); assay: FP; remark: listed apart in the source
p53 CTD (Homo sapiens) [12] = molecular target: p53 CTD (Homo sapiens) (UniProt P04637); assay: FP; remark: listed apart in the source
p53 CTD (Homo sapiens) [13] = molecular target: p53 CTD (Homo sapiens) (UniProt P04637); assay: FP; remark: listed apart in the source
p53 CTD (Homo sapiens) [14] = molecular target: p53 CTD (Homo sapiens) (UniProt P04637); assay: FP; remark: listed apart in the source
p53 CTD (Homo sapiens) [15] = molecular target: p53 CTD (Homo sapiens) (UniProt P04637); assay: FP; remark: listed apart in the source
p53 CTD (Homo sapiens) [16] = molecular target: p53 CTD (Homo sapiens) (UniProt P04637); assay: FP; remark: listed apart in the source
p53 CTD (Homo sapiens) [17] = molecular target: p53 CTD (Homo sapiens) (UniProt P04637); assay: ITC
p53 CTD (Homo sapiens) [18] = molecular target: p53 CTD (Homo sapiens) (UniProt P04637); assay: FP; remark: listed apart in the source
p53 CTD (Homo sapiens) [19] = molecular target: p53 CTD (Homo sapiens) (UniProt P04637); assay: FP; remark: listed apart in the source
p53 CTD (Homo sapiens) [20] = molecular target: p53 CTD (Homo sapiens) (UniProt P04637); assay: FP; remark: listed apart in the source
p53 CTD (Homo sapiens) [21] = molecular target: p53 CTD (Homo sapiens) (UniProt P04637); assay: FP; remark: listed apart in the source
p53 CTD (Homo sapiens) [22] = molecular target: p53 CTD (Homo sapiens) (UniProt P04637); assay: FP; remark: listed apart in the source
14-3-3γ (Homo sapiens) = 14-3-3γ (Homo sapiens) (UniProt P61981); assay: FP
14-3-3γ (Homo sapiens), sequence (P61981 2-247): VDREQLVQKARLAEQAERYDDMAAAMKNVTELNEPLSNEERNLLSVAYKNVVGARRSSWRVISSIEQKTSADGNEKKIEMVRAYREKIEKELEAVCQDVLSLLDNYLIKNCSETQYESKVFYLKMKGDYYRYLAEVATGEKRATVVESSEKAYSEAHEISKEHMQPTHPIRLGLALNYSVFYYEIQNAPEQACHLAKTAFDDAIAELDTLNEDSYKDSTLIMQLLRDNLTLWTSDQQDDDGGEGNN

14-3-3ε (Homo sapiens) = 14-3-3ε (Homo sapiens) (UniProt P62258); assay: FP
14-3-3ε (Homo sapiens), sequence (P62258 whole entry): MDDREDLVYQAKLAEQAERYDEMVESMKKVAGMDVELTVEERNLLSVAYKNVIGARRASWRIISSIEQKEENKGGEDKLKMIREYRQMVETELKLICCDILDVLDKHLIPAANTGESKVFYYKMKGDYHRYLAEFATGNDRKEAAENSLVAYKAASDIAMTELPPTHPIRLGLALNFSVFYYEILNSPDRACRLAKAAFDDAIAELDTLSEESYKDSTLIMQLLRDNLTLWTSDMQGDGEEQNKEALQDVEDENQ

14-3-3σ (Homo sapiens) [23] = molecular target: 14-3-3σ (Homo sapiens) (UniProt P31947); assay: FP
14-3-3σ (Homo sapiens), sequence (P31947 whole entry): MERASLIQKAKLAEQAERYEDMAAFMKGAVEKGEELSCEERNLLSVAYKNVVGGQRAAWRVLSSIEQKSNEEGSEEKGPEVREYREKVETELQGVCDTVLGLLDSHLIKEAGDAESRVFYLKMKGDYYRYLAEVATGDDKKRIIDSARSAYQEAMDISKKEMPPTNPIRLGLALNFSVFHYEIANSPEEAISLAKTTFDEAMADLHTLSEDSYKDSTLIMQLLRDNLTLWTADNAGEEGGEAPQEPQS

14-3-3τ (Homo sapiens) = 14-3-3τ (Homo sapiens) (UniProt P27348); assay: FP
14-3-3τ (Homo sapiens), sequence (P27348 whole entry): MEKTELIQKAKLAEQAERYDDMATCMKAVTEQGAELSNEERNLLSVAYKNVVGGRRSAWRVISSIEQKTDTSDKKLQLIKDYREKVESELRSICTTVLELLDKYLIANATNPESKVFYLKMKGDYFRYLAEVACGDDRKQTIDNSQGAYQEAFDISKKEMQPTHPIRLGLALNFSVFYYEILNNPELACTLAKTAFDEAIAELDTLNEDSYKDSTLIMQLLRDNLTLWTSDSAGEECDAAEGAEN

14-3-3σ (Homo sapiens) [24] = molecular target: 14-3-3σ (Homo sapiens) (UniProt P31947); assay: ITC

p53 CTD (Homo sapiens), sequence (P04637 363-393): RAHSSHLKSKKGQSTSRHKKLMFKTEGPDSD
14-3-3ε, sequence (P62258 whole entry): as the sequence (P62258 whole entry) above
p53 CTD pS366/pT387 peptide, sequence (P04637 361-393): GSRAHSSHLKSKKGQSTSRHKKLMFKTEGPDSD
p53 CTD pT387 peptide, sequence (P04637 361-393): as above
p53 CTD pS378 peptide, sequence (P04637 361-393): as above
p53 CTD pS378/pT387 peptide, sequence (P04637 361-393): as above
p53 CTD pS366 peptide, sequence (P04637 361-393): as above
p53 CTD pS366/pS378 peptide, sequence (P04637 361-393): as above
14-3-3γ, sequence (P61981 2-247): as the sequence (P61981 2-247) above
14-3-3σ, sequence (P31947 whole entry): as the sequence (P31947 whole entry) above
14-3-3τ, sequence (P27348 whole entry): as the sequence (P27348 whole entry) above

Kd (p53 CTD (Homo sapiens) [1])	Kd (14-3-3γ (Homo sapiens))	Kd (14-3-3ε (Homo sapiens))	Kd (14-3-3σ (Homo sapiens) [23])	Kd (14-3-3τ (Homo sapiens))	other results	Substance
0.45 µM	–	–	–	–	Kd (p53 CTD (Homo sapiens) [2]): 0.14 µM; Kd (p53 CTD (Homo sapiens) [3]): 20 µM; Kd (p53 CTD (Homo sapiens) [4]): 17 µM; Kd (p53 CTD (Homo sapiens) [5]): 14 µM; Kd (p53 CTD (Homo sapiens) [6]): 0.48 µM	14-3-3γ (from UniProt P61981)
16 µM	–	–	–	–	Kd (p53 CTD (Homo sapiens) [7]): 0.18 µM; Kd (p53 CTD (Homo sapiens) [8]): 18 µM; Kd (p53 CTD (Homo sapiens) [9]): 11 µM; Kd (p53 CTD (Homo sapiens) [10]): 0.51 µM; Kd (p53 CTD (Homo sapiens) [11]): 0.8 µM	14-3-3ε (from UniProt P62258)
23 µM	–	–	–	–	Kd (p53 CTD (Homo sapiens) [12]): 3.5 µM; Kd (p53 CTD (Homo sapiens) [13]): 22 µM; Kd (p53 CTD (Homo sapiens) [14]): 24 µM; Kd (p53 CTD (Homo sapiens) [15]): 2.2 µM; Kd (p53 CTD (Homo sapiens) [16]): 7.3 µM; Kd (p53 CTD (Homo sapiens) [17]): 16.3 µM	14-3-3σ (from UniProt P31947)
6.2 µM	–	–	–	–	Kd (p53 CTD (Homo sapiens) [18]): 27 µM; Kd (p53 CTD (Homo sapiens) [19]): 28 µM; Kd (p53 CTD (Homo sapiens) [20]): 24 µM; Kd (p53 CTD (Homo sapiens) [21]): 2.1 µM; Kd (p53 CTD (Homo sapiens) [22]): 3.3 µM	14-3-3τ (from UniProt P27348)
–	17 µM	16 µM	24 µM	28 µM	–	p53 CTD pS366 peptide (from UniProt P04637)
–	0.48 µM	0.51 µM	2.2 µM	2.1 µM	–	p53 CTD pS366/pS378 peptide (from UniProt P04637)
–	0.14 µM	0.18 µM	3.5 µM	6.2 µM	–	p53 CTD pS366/pT387 peptide (from UniProt P04637)
–	20 µM	18 µM	22 µM	27 µM	–	p53 CTD pS378 peptide (from UniProt P04637)
–	0.45 µM	0.8 µM	7.3 µM	3.3 µM	–	p53 CTD pS378/pT387 peptide (from UniProt P04637)
–	14 µM	11 µM	23 µM	24 µM	–	p53 CTD pT387 peptide (from UniProt P04637)
–	–	–	–	–	Kd (14-3-3σ (Homo sapiens) [24]): 16.3 µM	p53 pT387 peptide (from UniProt P04637)
